Consider 41 sequences from the nanobody polyreactivity screen of Harvey et al. (2022).

The data set can be described thus: yeast display, Sf9 membrane polyspecificity reagent, FACS + sequencing; frameworks hold sequencing errors. In a few lines:
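Sorting gates, low and high (top ~1%), were placed on anti-HA fluorescence to track expression and on streptavidin fluorescence to track reagent binding. A clone's polyreactivity label is taken from the gate it came out of. The reagent was 10% biotinylated, detergent-solubilized Sf9 membrane, applied for 1 hour at 4 °C to galactose-induced yeast display cells.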
With “QVQLVESGGGLVQAGGSLRLSCAASGSIFYGYAMGWYRQAAGNERELVAAITTGGSTYCADSVKGRFTISRDNAKNTVYLQMNSLKPEDTAVYYCAAKYYTGGSFEMYYWGQGNQVTVSS”, the “polyreactivity (PSR sort gate)” value was “high polyreactivity”.
With “QVQLVESGGGLVQAGGSLRLSCAASGSIFYGYAMGWYRQAPGKEREFVASINSGVGSTYYADSVKGRFTISRDNAKNTVYLLMNSLKPEDTAVYYCNKVHRSFTYNDGQTPAYDYWGQRTQVTVSS”, the “polyreactivity (PSR sort gate)” value was “low polyreactivity”.
The entry for “QVQLVESGGGLVQAGGSLRLSCAASGSIFYGYAMGWYRQAPGKERELVAAISWTGGRTYYADSVKGRFTISRDNAKNTVYLQMNSLKPEDTAVYYCNVRRYSVVSGGYWGQGTQVTVSS” is “high polyreactivity”; for “QVQLVESGGGLVQAGGSLRLSCAASGSIFYGYAMGWYRQAPGKERELVAAISYSGDRTYYADSVKGRFTISRDNAKNTVYLQMNSLKPEDTAVYYCAARKHGGTVRGRRDYWGQGTQVTVSS” it is “high polyreactivity”.
Turning to “QVQLVESGGGLVQAGGSLRLSCAASGSIFYGYAMGWYRQAPGKERELVAAITDVGSTNYADSVKGRFTISRDNAKNTVYLQMNSLKPEDTAVYYCAADNYRRSSVDPFTDTMGYWGQGTQVTVSS”, the “polyreactivity (PSR sort gate)” value is “low polyreactivity”.
For “QVQLVESGGGLVQAGGSLRLSCAASGSIFYGYAMGWYRQAPGKERELVAVISRRGDSTYYADSVKGRFTISRDNAKNSVYLQMNSLKPEDTAVYYCASYGSLSKGFGYWGQGTQVTVSS” the value was “low polyreactivity”; for “QVQLVESGGGLVQAGGSLRLSCAASGSIFYGYTMGWYRQAPGKERELVAAITYRGGRTYYADSVKGRFTISRDNAKNTDYLQMNSLKPEDTAVYYCAARYDYFSSKYGYWGQGTQVTVSS”, “high polyreactivity”.
For “QVQLVESGGGLVQAGGSLRLSCAASGSIFYHYAMGWYRQAPGKERELVAAISRSGGRTYYADSVKGRFTISRDNAKNTVYLQMNSLKPEDTAVYYCNKDYYYPNSWPKYDYWGQGTQVTVSS” the value was “low polyreactivity”.
The entry for “QVQLVESGGGLVQAGGSLRLSCAASGSIFYHYAMGWYRQAPGKERELVATINWSGGSTYYADSVKGRFTISRDNAKNTVYLQMNSLKPEDTAVYYCYSDSAIGLYVSSTPYGYDYWGQGTQVTVSS” is “low polyreactivity”.
With “QVQLVESGGGLVQAGGSLRLSCAASGSIFYINAMVWYRPAPGTERELLAAITSGGTYYADSVKGRFTISRDNAKNTVYLQMNSLKPEDTAVDYCAADREGTPLFDYWGQGTQVTVSS”, the “polyreactivity (PSR sort gate)” value is given as “low polyreactivity”.
For “QVQLVESGGGLVQAGGSLRLSCAASGSIFYKNAMGWYRQAPGKERELVAVISTSGSTYYADSVKGRFTISRDNAKNTVYLQMKSLKPEDTAVYYCATKVRRWYSARSPNVRFDYWGQGTQVTVSS” the value was “high polyreactivity”; for “QVQLVESGGGLVQAGGSLRLSCAASGSIFYKYAMGWYRQAPGKEREFVAAITGSGVRTYYADSVKGRFTISRDNAKNTVYLQMNRLKPDDTAVYYCAASSYGYDYWGQGTQVTVSS”, “high polyreactivity”.
For “QVQLVESGGGLVQAGGSLRLSCAASGSIFYKYAMGWYRQAPGKERELVASITSGGITNYADSVKGRFTISRDNAKNTVFLQMNSLKPEDTAVYYCNAANPYRRVGSFTYKYDYWGQGTQVTVSS” the value was “low polyreactivity”.
The entry for “QVQLVESGGGLVQAGGSLRLSCAASGSIFYKYAMGWYRQARGKERELVAAINRGVSTYYADSVKGRFTISRDNAKNTVYLQLTSLKPEDTAVYYCNADSTELRGYYYWGLGTQVTVSS” is “low polyreactivity”; for “QVQLVESGGGLVQAGGSLRLSCAASGSIFYKYVMGWYRQAPGKERELVAAISRGGGSTYYADSVKGRFTISRDNAKNSVYLQMNSLKPEDTAVYYCNAVGRPRYGHGFDHWGQGTQETVSS” it is “high polyreactivity”.
In the case of “QVQLVESGGGLVQAGGSLRLSCAASGSIFYLNAMGWYRQAPGKERELVATISNGGSTNYADSVKGRFTISRDNAKNTVYLQMNSLKPEDTAVYYCAAASGGTVVGEGDYWGQGTQVTVSS”, the “polyreactivity (PSR sort gate)” value is listed as “low polyreactivity”.
For the sequence “QVQLVESGGGLVQAGGSLRLSCAASGSIFYLNAMGWYRQAPGQERELVASISNGGSTNYADSVKGRFTISRDNAKHTVYLQMNSLKPEVTAVYYCAADYVVSAFDYWGQGTQLTVSS”, the “polyreactivity (PSR sort gate)” value was “low polyreactivity”.
The entry for “QVQLVESGGGLVQAGGSLRLSCAASGSIFYLYALGWYRQAPGKERELVAAISSSGGRTYYADSVKGRFTISRDNAKNTVYLQMNSLKPEDTAVYYCAARYWAKYSYGYWGQGTQVTVSS” is “high polyreactivity”; for “QVQLVESGGGLVQAGGSLRLSCAASGSIFYLYAMGWYRQAPGKERELVADITITGGSTYYADSVKGRFTISRDNAKNTVYLQMNSLKPEDTAVYYCAADEFWFTYRYDYWGQGTQVTVSS” it is “high polyreactivity”.
For “QVQLVESGGGLVQAGGSLRLSCAASGSIFYLYAMGWYRQAPGKERELVATISLSSGSTYADSVKGRFTISRDNAKNTVYLQMNSLKPDDTAVYYCAKDLSRWGYNEYDYWGQGTQVTLSS” the value was “low polyreactivity”; for “QVQLVESGGGLVQAGGSLRLSCAASGSIFYLYTMGWYRQAPGKERELVAAITSGGSTNYADSVKGRFTISRDNAKNTVYLQMNSLKPEDTAVYYCAAEYFDWWVTYDYWGQGTQVTVSS”, “high polyreactivity”; for “QVQLVESGGGLVQAGGSLRLSCAASGSIFYNNAMGWYRQAPGKERELVAAITIGGSTNYADSVKGRFTISRDNAKNTVYLQMNSLKPEDTAVYYCAAGKPGAYRYGSIVRFDHWGQGTQVTVSS”, “low polyreactivity”.
The entry for “QVQLVESGGGLVQAGGSLRLSCAASGSIFYNNVMGWYRQAPGKERELVAVISGGGSTNYADSVKGRFTISRDNAKNTDYLQMNSLKPEDTAVYYCAARGRYSYGDRYEYWGQGTQVTVSS” is “low polyreactivity”.
Consider “QVQLVESGGGLVQAGGSLRLSCAASGSIFYPYAMGWYRQAPGKERELVAAISYSGGSTYYADSVKGSFTISRDNAKNTVYLQMNSLKPEDTAVYYCNRRYWRRPYYKYDYWGQGTQVTVSS”, for which the “polyreactivity (PSR sort gate)” value is on record as “high polyreactivity”.
The entry for “QVQLVESGGGLVQAGGSLRLSCAASGSIFYPYAMGWYRQAPGKERELVARIRGTGGRTYYADSVKGRFTISRDNAKNTVYLQMNSLKPEDTAVYYCNAQTSGRVGSQYYSYYGSWGQGTQLTVSS” is “high polyreactivity”.
Consider “QVQLVESGGGLVQAGGSLRLSCAASGSIFYPYAMGWYRQAPGKERELVATINEDGGSTYYADSVKGRFTISRDNAKNTVYLQMNSLKPEDTAVYYCNTDHFEDYHTDFWSDYEYWGQGTQVTVSS”, for which the “polyreactivity (PSR sort gate)” value was “low polyreactivity”.
As for “QVQLVESGGGLVQAGGSLRLSCAASGSIFYPYAMGWYRQAPGKERELVATISSGVNTNYADSVKGRFTISRDNAKNTVYLQMNSLKPVDTAVYYCAARFRHSFRRGGGYNYDYWGQGTQVTVSS”, the “polyreactivity (PSR sort gate)” value is reported as “high polyreactivity”.
With “QVQLVESGGGLVQAGGSLRLSCAASGSIFYQYAMGWYRQAPGTERELVAAITWIGSPNYADSVKGRFTISRDNAKNTVYLQMNSLKPEDTAVYYCNTDPYVLQKYDYWGQGTQVTVSS”, the “polyreactivity (PSR sort gate)” value was “low polyreactivity”.
Turning to “QVQLVESGGGLVQAGGSLRLSCAASGSIFYRITMGWYRQAPGKERELVAAISTNGGSTYYADSVKGRFTISRDNAKNSVYLQMNSLKPEDTAVYYCAADLRRSDYDYWGQGTQVTVSS”, the “polyreactivity (PSR sort gate)” value was “high polyreactivity”.
For “QVQLVESGGGLVQAGGSLRLSCAASGSIFYRNAMGWSRQPPGKERELVAGITTRGGSTYYADSVKGRFTISRDNAKNTVYLQMNSLKPEDTAVYYCAAVPYSRYSSSRGYWGQGTQVTVSS” the value was “high polyreactivity”; for “QVQLVESGGGLVQAGGSLRLSCAASGSIFYRNAMGWYIQAPGKERELVAAISRRGGITYYADSVKGRFTISRDNAKNTVYLQMNSLKPEDTAVYYCYTDTGGMDYWGQGTQVTVSS”, “high polyreactivity”.
For “QVQLVESGGGLVQAGGSLRLSCAASGSIFYRNAMGWYRPAPGKERELVAAISSDGSTNYADSVKGRFTISRDNAKNTVYLQMNSLKPEDTAVYYCAVDRYRYPFDYWGQGTQVTVSS” the value was “low polyreactivity”; for “QVQLVESGGGLVQAGGSLRLSCAASGSIFYRNAMGWYRQAPGKERELVATITVNGGRTYYADSVKGRFTISRDNANNTVYLQMNSLKPEDTAVYDCAKDVHRWDPYDYWGQGTQVTVSS”, “low polyreactivity”.
On to “QVQLVESGGGLVQAGGSLRLSCAASGSIFYRNTMGWYRQAPGKERELVAGITGNGGRTYYADSVKGRFTISRDNAKNTVYLQMNSQKPEDTAVYYCAAGTWTWYRYYYWGQGTQVTVSS”, for which the “polyreactivity (PSR sort gate)” value was “high polyreactivity”.
For “QVQLVESGGGLVQAGGSLRLSCAASGSIFYRYAMGWYRQAPGKERELFATITQSGVSTYYADSVKGRFTISRDNAKNTVFLQRISLKPEDTAVYYCAASYYYTIGPYLRKFDWGQGTQVTVSS” the value was “low polyreactivity”; for “QVQLVESGGGLVQAGGSLRLSCAASGSIFYRYAMGWYRQAPGKERELVAAINWSGGSTYYADSVKGGFTISRDNAKNTVYLQMNTLKPEDTAVYYCAARLYWRRYDYWGQGTQVTVSS”, “high polyreactivity”.
Take “QVQLVESGGGLVQAGGSLRLSCAASGSIFYRYAMGWYRQAPGKERELVAAIRWSGGSTYYADSVKGRFTISRDNAKNTVYLQMNSLKPEDTAVYYCATEVSSGGYWSWYGYWGQGTQVTVSS”: the “polyreactivity (PSR sort gate)” value is listed as “low polyreactivity”.
Turning to “QVQLVESGGGLVQAGGSLRLSCAASGSIFYRYAMGWYRQAPGKERELVAAISRSGGRTYYADSVKGRFTISRDNAKNTVYLQMNSLKPEDTAVYYCAAESTVGTDLGGDSWGQGTQVTVSS”, the “polyreactivity (PSR sort gate)” value is listed as “high polyreactivity”.
For “QVQLVESGGGLVQAGGSLRLSCAASGSIFYRYAMGWYRQAPGKERELVAAISSGSSTHYADSVKGRFTISRDNAKNTVYLQMNSLKPEDTAVYYCAARYRAFTSTRRFDYWGQGTQVTVSS” the value was “high polyreactivity”; for “QVQLVESGGGLVQAGGSLRLSCAASGSIFYRYAMGWYRQAPGKERELVAAISSRGGSTNYADSVKGRFTISRDNAKNTVYLQMNSLKPEDTAVYYCAAGWNYLRQFNFNYWGQGTQVTVSS”, “high polyreactivity”.
With “QVQLVESGGGLVQAGGSLRLSCAASGSIFYRYAMGWYRQAPGKERELVADISSGGGTSYADSVKGRFTISRDNAKNTVYLQMNSLKPEDTAVYYCAAELYYWTYVRFDYWGQGTQVTVSS”, the “polyreactivity (PSR sort gate)” value is “low polyreactivity”.
